The values below come from the nanobody polyreactivity screen of Harvey et al. (2022).

The nature of the data set: yeast display, Sf9 membrane polyspecificity reagent, FACS + sequencing; frameworks hold sequencing errors. The method, boiled down: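 After 36–48 hours of galactose induction, yeast (Saccharomyces cerevisiae BJ5465) displaying a synthetic nanobody library were stained at 4 °C for 1 hour with 10% biotinylated, detergent-solubilized Sf9 membrane reagent. Streptavidin microbeads enriched the stained cells before FACS sorting into low and high (top ~1%) gates on anti-HA and streptavidin fluorescence. Each clone's polyreactivity label reflects its gate of origin.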
With “QVQLVESGGGLVQAGGSLSLSCAASGSTFTYYDMGWYRQAPGKERELVAAISSSGGRTYYSDSVKGRFTISRDNAKNTVYLQMNSLKPEDTAVYYCARVVRPTDGDYWGQGTQVTVSS”, the “polyreactivity (PSR sort gate)” value was “high polyreactivity”. In the case of “QVQLVESGGGLVQAGGSLSLSCAASGSTFVPYAMGWYRQAPGKERELVAAISSTGGSTYYADSVKGRFTISRDNAKNTVYLQMNSLKAEDTAVYYCNALAKIRYGQINKGYYWGQGTQVTVSS”, the “polyreactivity (PSR sort gate)” value is listed as “high polyreactivity”. On to “QVQLVESGGGLVQAGGSLSLSCAASGYIFLVYAMGWYRQAPGKERELVASITRGGGTTYYADSVKGRFTISRDNAKNTVYLLMNSLKREDTAVYYCAADLYSRGHRWYGYWGQGTQVTVSS”, for which the “polyreactivity (PSR sort gate)” value was “high polyreactivity”. To “QVQLVESGGGLVQAGGSLSLSCAASGYTLYANAMGWYRQAPGKERELVAAIRSGGSTNYADSVKGRFTISRDNAKNTVYLQMNSMKPEDTAVYYCAKDPYQDFLYLRYYGYYYWGQGTQVTVSS” belongs “low polyreactivity”; to “QVQLVESGGGLVQAGGSLSLSCPASGRTFSTNAMGWYRQAPGKEREMVAAISARGGSTYYADSVKGRFTISRDNAKNTVYLQMNSLKPEDTAVEYCALRPGRYSYAFDFWGQGTQVTVSS”, “high polyreactivity”; to “QVQLVESGGGLVQAGGSLSLSSAASGRPFIRNAMGWSRQAAGKERELVAGINSGGITNYADSVKGRFTISRDNAKNTVYLQMNSLKPVDTAFYYCNARQVLYGLYLRAYPYEYWGQGTQVTVSS”, “low polyreactivity”. To “QVQLVESGGGLVQAGGSLSLSSAASGRTFGIYAMGWYRQEPGKERELVAAITWSGDSTYYADSVKGRFTISRDNAKNTVYLQLNSLKPEDTAVDYCAADYVGVTYVRYDYWGQGTQVTVSS” belongs “low polyreactivity”; to “QVQLVESGGGLVQAGGSLSLSSAASGSIFVGNAIAWYRQAPGKERELVATISWSCGSTYYADSVKGRFTISRDYAKNNVYLQMNSRKPEDTAVYYCAAEFGGYDPYDYWGQGTQVTVSS”, “low polyreactivity”. Turning to “QVQLVESGGGLVQAGGSLSLSSDASGSPLFSDAMGWYRQAPGKEREFVAAISRRGRSTYYADSVKGRFTISRDNAKNSVYFQMNSLIPEDTAVYYCAARDSSYNWYGYWGQGTQVTVSS”, the “polyreactivity (PSR sort gate)” value is “high polyreactivity”.

As for “QVQLVESGGGLVQAGGSLSLTCAASGIIFSYNAMGWYRQATGKERELVAAISWSGGSTYYADSVKGRFTISRDNAKNTVYLQMNSLKPEDTAVYYCNAPYLIRFKRLGDNWGQGTQVTVSS”, the “polyreactivity (PSR sort gate)” value was “high polyreactivity”.

“QVQLVESGGGLVQAGGSLSLTCAASGRTFESNAMGWYRQAPGKERELVAVITSGGITNYTDSVKGRFTISRDNAKNTVYLQLNSLKPVDTAVYYCEFYYWGQGTQVTVSS”: the “polyreactivity (PSR sort gate)” value is given as “low polyreactivity”. As for “QVQLVESGGGLVQAGGSLSLTCAASGSSFWPYAMGWYRQAPGKELELVAASTTRDGSTYYADSVKGRFTISRDNAKNTVYLQMISLKTEDTAVYYSAAVVLRDGWWGYYYWGQGTQVTVSS”, the “polyreactivity (PSR sort gate)” value was “high polyreactivity”. On to “QVQLVESGGGLVQAGGSLSLTWAASGSTFSYYVMGWYRQAPGKETELVAGITRGGRTYYADSENGRFTISRDNAKNSVFLQMNSLKPEDTAVYYCAKDQGGVLELDYWGQGTQVTVSS”, for which the “polyreactivity (PSR sort gate)” value is reported as “low polyreactivity”.

Turning to “QVQLVESGGGLVQAGGSPRLSCAASGFTFGHYAMGWYREAPGKERELVAAISIDGGRTYYADSVKGRFTISRDNAKNSVYLQMNSLKPEDTAVYYCAVPRWFYYYWGQGTQVTVSS”, the “polyreactivity (PSR sort gate)” value is given as “high polyreactivity”.

With “QVQLVESGGGLVQAGGSQRLSCAASGSIFLRYAMGWYRQAPGKERELVAAITSSGGSTYYADSVKGRFTISRDNAKNTVYLQMTSLKPEDTAVYYCNRYSYLFPYYWKYDYWGQGTQVTVSS”, the “polyreactivity (PSR sort gate)” value is recorded as “high polyreactivity”. Next, “QVQLVESGGGLVQAGGSRLSCAASGLIFISYTMGWYRPAPGKERELVAAIDSSGGNTYYADSVKGRFTISRDNAKNTVYLQMNSLKPEDTAVYYCAKDVGHGAGNLMGYWGQGTQVTVSS”: “low polyreactivity”.
